“Also recorded” adds a separate entry of the source.
How the values were obtained:
preformed NTHI biofilms = assay: Disruption of pre-formed NTHI biofilms (treatment after initial growth; LIVE/DEAD, CLSM, COMSTAT); type: cell-based, Non-typeable Haemophilus influenzae; conditions: DNase (Pulmozyme) added at 24 h
Description: (FIG. 18A) Biofilm growth was initiated then maintained for 24 hrs then treated for 16 hrs with 0 (SBHI Control), 0.1%, 1%, and 5% (w/v) of Phoshocellulose (P11). (FIG. 18B) Biofilm growth was initiated then maintained for 40 hrs in the presence of 0 (sBHI Control), 0.1%, 1%, and 5% (w/v) of (P11). Biofilms were washed with saline and stained with LIVE/DEAD® stain. Images were analyzed by COMSTAT to calculate average thickness and biomass. All images were captured with a 63× objective.
21:65-7. Pulmozyme® was added either at seeding (biofilm prevention) or to pre-formed biofilms (biofilm disruption) (FIG. 6). The resultant biofilms were stained with LIVE/DEAD® and evaluated using CLSM and COMSTAT analysis.
To determine anti-biofilm activity of cation exchange resins on preformed biofilms (i.e. ability to disrupt an extant biofilm), NTHI growth was initiated and maintained for 24 hrs, then treated for 16 hrs with 0 (sBHI Control), 0.1, 1, or 5% (w/v) of P11 phosphocellulose (FIG. 18A). To determine the anti-biofilm activity of cation exchange resins to prevent biofilm formation, NTHI growth was initiated and maintained in the presence of 0 (sBHI Control), 0.1, 1, and 5% w/v of P11 phosphocellulose (FIG. 18B) or 5% (w/v) heparin sepharose (FIG. 19). Biofilms were washed with saline and stained with LIVE/DEAD®, visualized with confocal scanning microscopy (CSLM) and analyzed by COMSTAT to determine average thickness and biomass.

[1] = test system: Non-typeable Haemophilus influenzae biofilms; assay: NTHI in vitro biofilm formation, additive present from seeding (LIVE/DEAD, CLSM, COMSTAT); type: cell-based; conditions: DNase (Pulmozyme) added at seeding
Description: FIG. 14: Non-typeable Haemophilus influenzae biofilms were grown for 40 h in supplemented BHI medium containing additives as indicated below each bar in 8 well chambered coverglass slides at 37° C. and 5% CO2. Biofilms were washed, stained with LIVE/DEAD®, fixed, and imaged by CLSM. Biofilm parameters were quantified using COMSTAT software.
Dicyclohexylamine inhibits spermidine synthase via a competitive inhibition mechanism, i.e. through binding to the same site on the protein as the putrescine substrate. Applicants therefore hypothesized that dicyclohexylamine would inhibit NTHi biofilm development. […]

UPEC biofilms = assay: UPEC in vitro biofilm prevention (at seeding) / disruption (at 24 h); type: cell-based, uropathogenic Escherichia coli (UPEC)
Description: FIG. 6: Mature biofilms are resistant to disruption by DNase. DNase (Pulmozyme; 5 units) was added at seeding (prevention) or at 24 h (disruption) to the respective in vitro preformed NTHI and UPEC biofilms. After a total of 40 h, biofilms were stained with LIVE/DEAD®, visualized via CLSM and analyzed by COMSTAT. Bars represent the SEM. Statistical significance compared to control was assessed by unpaired t-tests, *P<0.05; **P<0.01.
FIGS. 35A-35D: DNABII proteins and polyamines (PAs) interact synergistically to induce DNase resistance. […] Biofilms were stained, fixed, visualized via CLSM, and analyzed by COMSTAT. […] Statistical significance compared to Control (No DNase) was assessed by unpaired t-tests, **P<0.01.
FIG. 49: Z-DNA stabilization stimulates biofilm formation. […] Biofilms were stained, fixed, visualized via CLSM, and analyzed by COMSTAT. […] Statistical significance compared to Control (no antibodies) was assessed by paired t-tests, *P<0.05, **P<0.01.
Applicants evaluated the antibiofilm effect of Pulmozyme®, a recombinant human DNase that is used in conjunction with standard therapies for the management of cystic fibrosis (CF) patients to improve pulmonary function. […] The resultant biofilms were stained with LIVE/DEAD® and evaluated using CLSM and COMSTAT analysis.

B1: DNase: Pulmozyme, a recombinant human DNase used for management of cystic fibrosis patients (protein, UniProt P24855 23-282, looked up)
Deoxyribonuclease-1: LKIAAFNIQTFGETKMSNATLVSYIVQILSRYDIALVQEVRDSHLTAVGKLLDNLNQDAPDTYHYVVSEPLGRNSYKERYLFVYRPDQVSAVDSYYYDDGCEPCGNDTFNREPAIVRFFSRFTEVREFAIVPLHAAPGDAVAEIDALYDVYLDVQEKWGLEDVMLMGDFNAGCSYVRPSQWSSIRLWTSPTFQWLIPDSADTTATPTHCAYDRIVVAGMLLRGAVVPDSALPFNFQAAYGLSDQLAQAISDHYPVEVMLK
With B1 the “NTHI mature biofilm disruption” value (preformed NTHI biofilms) was “unable to disrupt mature biofilms; also recorded: not disrupt extant biofilms”, the “NTHI biofilm prevention (average thickness, biomass)” value [1] was “significant reduction in average thickness and biomass of NTHI and UPEC biofilms; also recorded: can prevent formation of” and the “UPEC mature biofilm disruption” value (UPEC biofilms; DNase (Pulmozyme) added at 24 h) was “unable to disrupt mature biofilms; also recorded: not disrupt extant biofilms”. The “UPEC biofilm prevention (average thickness, biomass)” value (UPEC biofilms; DNase (Pulmozyme) added at seeding) was “significant reduction in average thickness and biomass of NTHI and UPEC biofilms; also recorded: can prevent”.
